Test in all cases: EMSA
Holding throughout (conditions): tags: MBP fusion

In one data set the target is T1, ZFP SBS#1177 (synthetic).
T1 chain: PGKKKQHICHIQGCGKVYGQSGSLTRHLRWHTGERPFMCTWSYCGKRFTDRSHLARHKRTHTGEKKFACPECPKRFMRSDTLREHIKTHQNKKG
Put shortly:
(§1)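 Purified ZFP was titrated against labeled double-stranded target (1 nM or lower, at least 10-fold below expected Kd) carrying the natural binding site with flanks. Binding buffer was 10 mM Tris pH 7.5, 100 mM KCl, 1 mM MgCl2, 0.1 mM ZnCl2, 5 mM DTT, 10% glycerol, 0.02% BSA, with equilibration for at least 45 min. Bound and free target were separated on a 10% polyacrylamide gel.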

In the next data set the target is T2, ZFP SBS#1099 (synthetic).
T2 chain: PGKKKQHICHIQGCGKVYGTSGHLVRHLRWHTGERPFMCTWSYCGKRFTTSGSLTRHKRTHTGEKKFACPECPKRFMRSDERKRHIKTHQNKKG
Put shortly: as §1

A further data set has as its target ZFP SBS#1093 (synthetic). The essentials: as §1
The next data set addresses T3, ZFP SBS#1171 (synthetic).
T3 chain: T2 chain with T20R, G22D, H23D, V25R, R26T, T50R, G52D, S53N, T55A
Put shortly: as §1

Another data set has as its target T4, ZFP SBS#1178 (synthetic).
T4 chain: T2 chain with T20D, S21R, G22S, V25A, S53N, T55V, E81N, R82L, K83A
Put shortly: as §1

A further data set has as its target T5, ZFP SBS#1183 (synthetic).
T5 chain: T1 chain with Q20D, S21R, G22S, S23H, T25A, D50Q, R51S, H53N, A55V, T81N
Put shortly:
as §1

The target in another data set is ZFP SBS#1182 (synthetic). Put shortly: as §1
Another data set deals with T6, ZFP SBS#1131 (synthetic).
T6 chain: T1 chain with Q20E, S21R, S23D, D50Q, S52A, A55E, T81A, R83T, E84R
The essentials:
as §1

The next data set deals with ZFP SBS#1176 (synthetic). The essentials:
as §1

Another data set deals with ZFP SBS#1188 (synthetic). The essentials: as §1
The target in the next data set is ZFP SBS#1151 (synthetic). Put shortly: as §1
Another data set has as its target T7, ZFP SBS#1170 (synthetic).
T7 chain: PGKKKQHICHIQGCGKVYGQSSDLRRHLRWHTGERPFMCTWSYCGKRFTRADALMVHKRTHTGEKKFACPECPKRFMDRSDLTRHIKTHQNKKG
Put shortly:
as §1

A further data set addresses T8, ZFP SBS#1092 (synthetic).
T8 chain: T7 chain with A51G, M55T, V56S
Put shortly:
as §1

A further data set deals with ZFP SBS#1192 (synthetic). The essentials:
as §1

A further data set deals with T9, ZFP SBS#1193 (synthetic).
T9 chain: T2 chain with T20R, G22D, H23A, V25T, T50Q, E81A, R82L, K83T, R84Q
Put shortly:
as §1

The next data set deals with T10, ZFP SBS#1191 (synthetic).
T10 chain: T2 chain with T20R, G22D, H23A, V25T, T50Q, E81S, R82L, K83N, R84Q
Put shortly: as §1

The next data set has as its target ZFP SBS#1190 (synthetic). The essentials:
as §1

For the next data set, the target named is ZFP SBS#1174 (synthetic). Put shortly:
as §1

In another data set the target is ZFP SBS#1173 (synthetic). The essentials: as §1
In a further data set the target is T11, ZFP SBS#480 (synthetic).
T11 chain: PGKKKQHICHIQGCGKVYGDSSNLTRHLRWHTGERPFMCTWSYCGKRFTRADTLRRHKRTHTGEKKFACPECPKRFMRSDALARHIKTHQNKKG
The essentials: as §1

For a further data set, the target named is T12, ZFP SBS#479 (synthetic, UniProt P08047).
T12 chain: T11 chain with A51S, T53E, R55Q
The essentials:
as §1

Another data set deals with T13, ZFP SBS#1186 (synthetic).
T13 chain: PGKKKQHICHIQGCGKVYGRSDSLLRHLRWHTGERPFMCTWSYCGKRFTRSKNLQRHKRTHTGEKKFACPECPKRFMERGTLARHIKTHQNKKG
The essentials: as §1

The next data set has as its target T14, ZFP SBS#1181 (synthetic).
T14 chain: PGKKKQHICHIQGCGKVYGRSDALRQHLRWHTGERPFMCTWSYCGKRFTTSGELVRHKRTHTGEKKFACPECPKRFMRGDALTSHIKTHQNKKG
Put shortly: as §1

The target in the next data set is T15, ZFP SBS#1126 (synthetic).
T15 chain: T14 chain with R25T, Q26S
The essentials:
as §1

The target in the next data set is T16, ZFP SBS#1157 (synthetic).
T16 chain: T2 chain with T20Q, G22A, H23N, V25A, E81A, R82L, K83R, R84Q
The essentials:
as §1

The target in a further data set is T17, ZFP SBS#1189 (synthetic).
T17 chain: T2 chain with T20Q, G22A, H23N, V25A, S53A, E81A, R82L, K83R, R84Q
The essentials:
as §1

The next data set deals with T18, ZFP SBS#1156 (synthetic).
T18 chain: T1 chain with G22A, S23N, T25A, D50Q, R51S, H53A, A55T, T81A, E84Q
Put shortly: as §1

The next data set deals with ZFP SBS#1180 (synthetic). The essentials:
as §1

In another data set the target is T19, ZFP SBS#1185 (synthetic).
T19 chain: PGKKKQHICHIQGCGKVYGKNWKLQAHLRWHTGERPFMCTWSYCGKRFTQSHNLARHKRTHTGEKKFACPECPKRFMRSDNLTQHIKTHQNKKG
The essentials: as §1

Another data set has as its target T20, ZFP SBS#1184 (synthetic).
T20 chain: T19 chain with H52G
The essentials: as §1

The next data set concerns the target T21, ZFP SBS#1187 (synthetic, UniProt P08047).
T21 chain: T11 chain with S21R, N23H, T25A, A51S, T53A, R55T, A83R, R84E
Put shortly:
as §1

Another data set has as its target ZFP SBS#1098 (synthetic). The essentials: as §1
The next data set deals with T22, ZFP SBS#1172 (synthetic).
T22 chain: T13 chain with S23N, L25T, K52D, N53H, Q55T, T81D, A83T
Put shortly:
as §1

The target in the next data set is ZFP SBS#1175 (synthetic). The essentials:
as §1

Another data set addresses T23, ZFP SBS#1128 (synthetic).
T23 chain: T1 chain with Q20E, S21R, S23D, R51P, S52G, H53A, A55V, T81N, R83T, E84Q
The essentials: as §1

Where a chain is given by its changes, count along the chain named.

Chain of ZFP SBS#1151 (synthetic) (chain, as listed by the source): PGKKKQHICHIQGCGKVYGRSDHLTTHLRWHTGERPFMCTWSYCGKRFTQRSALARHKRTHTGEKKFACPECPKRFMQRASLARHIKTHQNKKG
Chain of ZFP SBS#1190 (synthetic) (chain, as listed by the source): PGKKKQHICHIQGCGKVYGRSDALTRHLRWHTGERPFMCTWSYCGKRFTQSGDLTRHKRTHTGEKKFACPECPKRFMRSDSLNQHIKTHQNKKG
Chain of ZFP SBS#1192 (synthetic) (chain, as listed by the source): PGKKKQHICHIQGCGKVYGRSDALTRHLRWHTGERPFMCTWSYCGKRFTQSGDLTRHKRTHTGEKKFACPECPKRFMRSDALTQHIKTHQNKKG
Chain of ZFP SBS#1180 (synthetic) (chain, as listed by the source): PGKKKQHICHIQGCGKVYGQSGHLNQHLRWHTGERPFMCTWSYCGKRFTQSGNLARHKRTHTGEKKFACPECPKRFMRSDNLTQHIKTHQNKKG
Chain of ZFP SBS#1188 (synthetic) (chain, as listed by the source): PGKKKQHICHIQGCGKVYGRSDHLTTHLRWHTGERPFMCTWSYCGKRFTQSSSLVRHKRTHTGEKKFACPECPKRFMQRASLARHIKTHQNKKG

B1: CCGGGCGCA (dsDNA)
DNA 1: CCGGGCGCA
DNA 2: TGCGCCCGG
For the molecule B1, the affinity in the data set with ZFP SBS#1177, expressed as Kd, was 4.1 nM.

B2: GCGGAGTCG (dsDNA)
DNA 1: GCGGAGTCG
DNA 2: CGACTCCGC
Regarding B2, the Kd with ZFP SBS#1099 stood at 0.45 nM; with ZFP SBS#1093 it was 0.046 nM; with ZFP SBS#1171, 0.18 nM.

B3: GAGGATGGC (dsDNA)
DNA 1: GAGGATGGC
DNA 2: GCCATCCTC
Molecule B3 yielded a Kd with ZFP SBS#1178 of 0.085 nM. That is a picomolar value.

B4: CAGGAAGGC (dsDNA)
DNA 1: CAGGAAGGC
DNA 2: GCCTTCCTG
Take B4: the figures for the Kd with ZFP SBS#1183 and with ZFP SBS#1182 were 1.94 nM and 1.48 nM, respectively.

B5: GTGGGAGCC (dsDNA)
DNA 1: GTGGGAGCC
DNA 2: GGCTCCCAC
As for B5, the Kd came out at 0.95 nM with ZFP SBS#1131 and 4.1 nM with ZFP SBS#1176.

B6: GTAGTATGG (dsDNA)
DNA 1: GTAGTATGG
DNA 2: CCATACTAC
Regarding B6, the figures for the Kd in the data set with ZFP SBS#1188 and in the data set with ZFP SBS#1151 were 2.74 nM and 1.63 nM, respectively.

B7: GCCTTGGCT (dsDNA)
DNA 1: GCCTTGGCT
DNA 2: AGCCAAGGC
For B7, the Kd with ZFP SBS#1170 was found to be 2.75 nM; in the data set with ZFP SBS#1092, 2.73 nM.

B8: ATGGCAGTG (dsDNA)
DNA 1: ATGGCAGTG
DNA 2: CACTGCCAT
For the molecule B8, the Kd came out at 2.36 nM in the data set with ZFP SBS#1192, 3.12 nM with ZFP SBS#1193, 5.33 nM with ZFP SBS#1191 and 1.48 nM with ZFP SBS#1190.

B9: GCTGAAGGG (dsDNA)
DNA 1: GCTGAAGGG
DNA 2: CCCTTCAGC
Consider B9, for which the values for the Kd with ZFP SBS#1174 and in the data set with ZFP SBS#1173 were 0.018 nM and 0.008 nM, respectively.

B10: GTGGCGGACC (dsDNA)
DNA 1: GTGGCGGACC
DNA 2: GGTCCGCCAC
For the molecule B10, the figures for the Kd with ZFP SBS#480 and in the data set with ZFP SBS#479 were 5 nM and 8.5 nM, respectively.

B11: GCCGAGGTG (dsDNA)
DNA 1: GCCGAGGTG
DNA 2: CACCTCGGC
Molecule B11 yielded a Kd in the data set with ZFP SBS#1186 of 27.5 nM. In other words, the double-digit nanomolar range.

B12: TTGGCTATG (dsDNA)
DNA 1: TTGGCTATG
DNA 2: CATAGCCAA
In the case of B12, the Kd with ZFP SBS#1181 worked out at 8.2 nM; with ZFP SBS#1126 it was 0.46 nM.

B13: ATGGTTGAA (dsDNA)
DNA 1: ATGGTTGAA
DNA 2: TTCAACCAT
For B13, the Kd was determined as 0.885 nM with ZFP SBS#1157, 1.51 nM in the data set with ZFP SBS#1189 and 7.2 nM with ZFP SBS#1156.

B14: AAGGAAAGA (dsDNA)
DNA 1: AAGGAAAGA
DNA 2: TCTTTCCTT
Take B14: the Kd with ZFP SBS#1180 turned out to be 4.83 nM; with ZFP SBS#1185, 5.25 nM; with ZFP SBS#1184 it was 2.79 nM.

B15: CTGGTGGGC (dsDNA)
DNA 1: CTGGTGGGC
DNA 2: GCCCACCAG
The molecule B15 showed a Kd in the data set with ZFP SBS#1187 of 0.006 nM. This counts as picomolar.

B16: GCCGGGGAG (dsDNA)
DNA 1: GCCGGGGAG
DNA 2: CTCCCCGGC
As for B16, the Kd with ZFP SBS#1098 was 0.055 nM; with ZFP SBS#1172 it was 0.01 nM.

B17: AAGGTCGCC (dsDNA)
DNA 1: AAGGTCGCC
DNA 2: GGCGACCTT
With B17, the results for the Kd with ZFP SBS#1175 and with ZFP SBS#1128 were 8.9 nM and 5.45 nM, respectively.

What is called Kd is a measure of binding affinity in units of concentration. A lower Kd goes with tighter binding.

Source of the values: patent publication US20030068675, “Position dependent recognition of GNN nucleotide triplets by zinc fingers” (published 2003).
